Test results reported in publication PMC6856136, “Topological DNA-binding of structural maintenance of chromosomes-like RecN promotes DNA double-strand break repair in Escherichia coli” (Communications Biology, 2019).

Target: the molecule itself
Test: SEC; gel filtration chromatography of purified His-RecN; single peak at a position indicating 308 kDa; column and buffer not told in the methods shown

B1: N-terminally hexahistidine-fused RecN (His-RecN), Escherichia coli (natural protein, E. coli, UniProt P05824 1-553, looked up)
chain: MLAQLTISNFAIVRELEIDFHSGMTVITGETGAGKSIAIDALGLCLGGRAEADMVRTGAARADLCARFSLKDTPAALRWLEENQLEDGHECLLRRVISSDGRSRGFINGTAVPLSQLRELGQLLIQIHGQHAHQLLTKPEHQKFLLDGYANETSLLQEMTARYQLWHQSCRDLAHHQQLSQERAARAELLQYQLKELNEFNPQPGEFEQIDEEYKRLANSGQLLTTSQNALALMADGEDANLQSQLYTAKQLVSELIGMDSKLSGVLDMLEEATIQIAEASDELRHYCDRLDLDPNRLFELEQRISKQISLARKHHVSPEALPQYYQSLLEEQQQLDDQADSQETLALAVTKHHQQALEIARALHQQRQQYAEELAQLITDSMHALSMPHGQFTIDVKFDEHHLGADGADRIEFRVTTNPGQPMQPIAKVASGGELSRIALAIQVITARKMETPALIFDEVDVGISGPTAAVVGKLLRQLGESTQVMCVTHLPQVAGCGHQHYFVSKETDGAMTETHMQSLNKKARLQELARLLGGSEVTRNTLANAKELLAA
notes: RecN, Escherichia coli; a fragment containing the recN gene from the pRecN plasmid cloned into pET15b; Copies: by gel filtration 'a homo-oligomeric complex, most likely a tetramer' (308 kDa); the discussion speaks of multimers larger than tetramers. pET15b may add linker residues between the His tag and RecN (surmised); also called E. coli RecN; source: E. coli BL21 (DE3), pET15b derivative, …
stoichiometry N: ~4
